Test results: US12611443B2, “Methods and compositions related to therapeutic peptides for cancer therapy” (THE UNIVERSITY OF CHICAGO, priority 2018, dated 2026)
“Also recorded” adds a separate entry of the source.

T1: ELANE (Homo sapiens, UniProt P08246)
T1 sequence (P08246 30-267): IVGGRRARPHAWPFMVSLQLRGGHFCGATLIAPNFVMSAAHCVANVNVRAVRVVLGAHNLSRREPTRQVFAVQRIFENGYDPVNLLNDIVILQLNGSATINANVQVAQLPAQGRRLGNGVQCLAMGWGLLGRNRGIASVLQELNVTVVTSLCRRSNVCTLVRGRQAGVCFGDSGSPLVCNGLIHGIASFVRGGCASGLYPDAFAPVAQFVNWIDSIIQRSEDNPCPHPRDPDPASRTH


Tests used:
[1] = test system: MDA-MB-231 tumors; assay: In vivo testing of Tet-on C1-2 transduced MDA-MB-231 tumors; set-up: species or system nude mouse
Protocol: FIG. 7 In vivo testing MDA-MB-231 tumor regression post C1-2 induction. (A) Tumor weight. (B) Tumor cells (millions) count (post-ficoll gradient). (C) Percent immune cells in tumors (mouse CD45+) measurement by flow cytometry.
In Vivo testing. Mammary glands of a nude mouse model were injected with 2 million Tet-on C1-2 transduced MDA-MB-231 cells. Once tumors reach approximately 80 to 100 mm3 mice are feed either a doxycycline diet or are injected intraperitoneally with doxycycline (50 mg/ml) every 5 days to induce Tet-on system. Tumor growth is monitored. Tumors are isolated and digested on day 21 post doxycycline treatment and tumor weights are measured, tumor cell numbers are counted, and CD45+ cells are measured by flow cytometry.

[2] = test system: MDA-MB-231 cells; assay: Doxycycline-inducible Tet-on expression of C or C1-2 in MDA-MB-231 cells; type: cell-based, human
Protocol: (§1) FIG. 4 Inducible Expression System. Scheme of doxycycline inducible Tet-on system to express either C (aa. 157-335) or C1-2 (aa. 221-331). C1-2 (DD containing fragment) upon addition of doxycycline (both in vitro and in vivo).
(§2) FIG. 5 Confirmation of C1-2 expression and cancer cell selective killing. (A) Tet-on C or C1-2 transduced MDA-MB-231 cells were treated with 2 μg/mL doxycycline (2 μg/mL) for 24 h. Cell lysates were collected for western blot. Confirming the expression of C or C1-2 expression. (B) Tet-on C or C1-2 transduced MDA-MB-231 cells were treated with 0.2 or 2 μg/mL doxycycline for 72 h. Cell viability was measured by Calcein AM. […] (C) Tet-on C1-2 transduced MCF10A cells were treated with 2 μg/mL doxycycline. Cell viability was measured at various time points by Calcein AM.
FIG. 6 In vitro testing MDA-MB-231 cell death post C1-2 induction. (A) Various single colony of Tet-on C1-2 transduced MDA-MB-231 cells were treated with 2 μg/mL doxycycline (2 μg/mL) for 72 h. Cell viability was measured by Calcein AM. Different colonies have different susceptibility of death post C1-2 induction. (B) C1-2 expression of various single colony of Tet-on C1-2 transduced MDA-MB-231 cells post doxycycline treatment were measured by western blot (C), and the level at 24 h was correlated with % death (normalized by full length). […] (C) Immunoblot of C1-2 and full length (FL) CD95 expression for various colony.

[3] = test system: cancer cells; assay: CD95 protein overexpression in cancer cells, viability in absence of ELANE (calcein-AM); type: cell-based, human; conditions: for cancer cell death/toxicity on expression in the absence of ELANE: transient overexpression
Protocol: FIGS. 1A-1K. ELANE cleaves CD95 to selectively kill cancer cells. (A): Heatmap summary of ELANE's effects on survival, stress, and apoptosis pathways in cancer cells and healthy cells. (B-C): Cancer cells were treated with ELANE (100 nM) and CD95 cleavage was assessed by western blotting using anti-N-terminal (B) or anti-C-terminal antibodies (C). *, lower molecular weight CD95 fragment. (D): Cancer cells or non-cancer cells were transduced to overexpress CD95 proteins, and effects on ELANE-mediated apoptosis were quantified by ANXAS at 30 min. n=2/group. See FIG. 1I for transduction and CD95 over-expression. (E): Cleavage of recombinant human CD95 N-terminal (aa 1-173) or C-terminal (aa 212-335) proteins by ELANE was assessed by SDS-PAGE and Coomassie blue staining. (F): Bands from (E) were digested with trypsin and analyzed by mass spectrometry to identify putative ELANE cleavage sites (i.e., peptides with non-tryptic ends). Major non-tryptic peptides were quantified by ion chromatograms. (G): Schematic of ELANE cleavage sites in CD95. […] (H): Cleavage of recombinant peptides corresponding to aa 214-231 and aa 317-335 in CD95 by ELANE was monitored by mass spectrometry. (I): Cancer cells or non-cancer cells were treated with fluorescein-labeled ELANE for 10 min and uptake was visualized by immunofluorescence. (J): ELANE catalytic activity in cancer cell lysates following exposure to ELANE for 30 mins in the presence and absence of Dynasore (60 μM endocytosis inhibitor). Effect of Dynasore on cancer cell killing capability of ELANE (measured by calcein-AM). n=6/group. (K): Cancer cells or non-cancer cells were transduced to overexpress various CD95 proteins, and cell viability in the absence of ELANE was determined by calcein-AM. n=10/group. *, p<0.05 Student's t-test.
(§3) In vitro cell viability assays. […] Luminescence was measured using a Victor X3 luminometer (PerkinElmer).
CD95 overexpression studies. Polycistronic adenoviral vectors were prepared to express the human and mouse CD95 sequences followed by the Encephalomyocarditis virus (EMCV) internal ribosome entry site and dTomato sequence under the control of the cytomegalovirus (CMV) promoter (VectorBuilder). Human and murine cancer cells or normal or non-cancer cells were transduced to over-express full-length CD95, N-terminal CD95 (human: aa 1-209; mouse: aa 1-204), C-terminal CD95 (human: aa 212-335; mouse: aa 204-327), or C-terminal CD95 that mimicked ELANE cleavage at site 1 (human: aa 221-335), site 2 (human: aa 212-331), or both sites (aa 221-331). Cancer cells or normal or non-cancer cells were transduced with adenoviruses at an MOI of 50-250 depending on cell type, and expression of dTomato and CD95 (human: 558814; mouse, mouse: 565130, BD Biosciences) were confirmed by flow cytometry. A vector encoding GFP (Vector Builders) was used as a control.

[4] = test system: MCF10A cells; assay: Doxycycline-inducible Tet-on expression of C1-2 in MCF10A cells; type: cell-based; conditions: doxycycline 2 μg/mL
Protocol: as §1, §2

[5] = test system: Human monocyte-derived macrophages (HMDMs); assay: Cell viability of HMDMs treated with purified ELANE or ECP; type: cell-based
Protocol: Primary human blood-derived cells.
as §3

[6] = test system: MDA-MB-231 cells; assay: Cell viability of MDA-MB-231 cells treated with purified ELANE or ECP; type: cell-based, human
Protocol: as §3

[7] = target: T1, ELANE; assay: ELANE activity assay with ECP (chromogenic substrate); type: biochemical; conditions: type II allosteric activator
Protocol: ELANE activity assays. Catalytic activity was measured using the chromogenic substrate N-Methoxysuccinyl-Ala-Ala-Pro-Val p-nitroanilide (Sigma, 100 μg/mL) according to manufacturer's protocol. Absorbance was measured at 405 nm using an accuSkan GO UV/Vis microplate spectrophotometer (ThermoFisher Scientific). For inactivation, ELANE was incubated with PMSF (1 mM, Sigma) or A1AT (42 nM, Athens Research & Technology) for 2 h. Residual PMSF was eliminated with a PD-10 desalting column (GE Healthcare Life). To monitor the effect of ECP on ELANE activity, ELANE (10 nM) was incubated with various doses of ECP (0-180 nM) at various substrate concentrations (0-1.7 mM).
Statistics. With the exception of proteomics studies, statistical significance was determined with the Student's two-tailed, unpaired t-test. Linear regression, Michaelis-Menten, and hyperbolic curve fittings were performed using Prism v.7 software.

Molecule | tumor growth after doxycycline induction ([1]; doxycycline IP or through the food) | CD45+ immune cells in tumors ([1]; flow cytometry) | selective killing of cancer cells by expression ([2]; FIG. 5A-5C) | cell death/apoptosis on doxycycline-induced expression ([2]; Tet-on MDA-MB-231, doxycycline 0.2 or 2 μg/mL, 72 h, Calcein AM) | correlation of expression level with extent of apoptosis/death ([2]; different colonies of MDA-MB-231 cells) | killing mechanism induced by expression ([3]; MDA-MB-231 cells) | cancer cell death/toxicity on expression in the absence of ELANE [3] | cancer cell death/toxicity on expression in the absence of ELANE ([3]; listed as aa. 221-331 of SEQ ID NO:1) | cell death/apoptosis on doxycycline-induced expression [4] | cell viability, purified protein [5] | killing at concentration present in PMN media, alone ([6]; ECP 0.05 μg/mL) | effect on killing capability of ELANE ([6]; ELANE 0.25 μg/mL and ECP 0.05 μg/mL) | cell viability, purified protein ([6]; MDA-MB-231) | increase of ELANE catalytic turnover (kcat) [7]
C1-2: hCD95 C-terminal peptide aa 221-331 mimicking ELANE cleavage at both sites; death domain containing fragment (protein) AINLSDVDLSKYITTIAGVMTLSQVKGFVRKNGVNEAKIDEIKNDNVQDTAEQKVQLLRNWHQLHGKKEAYDTLIKDLKKANLCTLAEKIQTIILKDITSDSENSNFRNEI | induced MDA-MB-231 tumor regression; also recorded: lessened tumor growth | increased the number of CD45^+ immune cells in tumors | can selectively kill cancer cells | induction of cell death in MDA-MB-231 cells; also recorded: underwent apoptosis; also recorded: caused MDA-MB-231 cell death | significantly and positively correlated; also recorded: correlates with MDA-MB-231 cell death | induced the same killing mechanism as treating these cells with ELANE | toxic | induced cancer cell death in the absence of ELANE | failed to induce apoptosis; also recorded: did not cause cell death |  |  |  |  | 
ECP: eosinophil cationic protein, a pore-forming protein (protein) RPPQFTRAQWFAIQHISLNPPRCTIAMRAINNYRWRCKNQNTFLRTTFANVVNVCGNQSIRCPHNRTLNNCHRSRFRVPLLHCDLINPGAQNISNCTYADRPGRRFYVVACDNRDPRDSPRYPVVPVHLDTTI |  |  |  |  |  |  |  |  |  | toxic to HMDMs | could not kill these cells alone | significantly enhanced the selective killing capability of ELANE | killed MDA-MB-231 cells only at doses that were also toxic to HMDMs | ~12 fold
